Source: PMC11653366 (2024)

T1: F*-PLLP
T1 chain: LASRPLPLLP

B1: SrcAbl SH3 84-145 (protein)
chain: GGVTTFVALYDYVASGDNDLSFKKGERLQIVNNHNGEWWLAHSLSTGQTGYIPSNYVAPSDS
B2: AblSrc SH3 SH3 (protein)
chain: PSENDPNLFVALYDFESRTETTLSITKGEKLRVLGYNTEGDWCEAQTKNGQGWVPSNYITPVNSLEK
B3: F*-p40 (peptide)
chain: APTYSPPPPP

Experiments:
Test in all cases: fluorescence anisotropy
[1] = target: T1, F*-PLLP
[2] = target: B3
[3] = target: Src SH3 84-145 (Homo sapiens, UniProt P12931)

Kd [1]	Kd [2]	Kd [3]	Binder
140 µM	130 µM		B1
> 1000 µM	210 µM		B2
		> 1000 µM	B3
